Data as given in US20090208936, “IDENTIFICATION OF MOLECULAR INTERACTIONS AND THERAPEUTIC USES THEREOF” (Univeristy of Florida Research Foundations Inc., published 2009).

Assays:
[1] = target: T1, alpha-thrombin (Homo sapiens, UniProt P00734;P00734 P00734:328-363,P00734:364-622); test: FP; anisotropy increased more than 30% at 1:1; 20 mM Tris-HCl pH 7.6, 50 mM NaCl, 5% glycerol
[2] = target: T1, alpha-thrombin; test: FRET quenching slightly larger than FQ-15Ap; Exosite II; not displaced by HirF or AHT
[3] = target: T1, alpha-thrombin; test: FP; anisotropy bait complex; slowly displaced by AT3
[4] = target: antithrombin III (AT3) (Homo sapiens, UniProt P01008 P01008:33-464); test: FRET control without thrombin, no fluorescence change; details: tags: Haematologic Technologies Inc; label: 5'-6-FAM, 3'-Dabcyl; G4
[5] = target: T2, sulfated hirudin fragment 54-65 (HirF) (UniProt P01050 P01050:54-65, not fully specified); test: as above; details: tags: Sigma-Aldrich; peptide with sulfated Tyr; label: 5'-6-FAM, 3'-Dabcyl; G4
T2 chain: GDFEEIPEEYLQ

Sequence of antithrombin III (AT3) (P01008 33-464, one chain of several): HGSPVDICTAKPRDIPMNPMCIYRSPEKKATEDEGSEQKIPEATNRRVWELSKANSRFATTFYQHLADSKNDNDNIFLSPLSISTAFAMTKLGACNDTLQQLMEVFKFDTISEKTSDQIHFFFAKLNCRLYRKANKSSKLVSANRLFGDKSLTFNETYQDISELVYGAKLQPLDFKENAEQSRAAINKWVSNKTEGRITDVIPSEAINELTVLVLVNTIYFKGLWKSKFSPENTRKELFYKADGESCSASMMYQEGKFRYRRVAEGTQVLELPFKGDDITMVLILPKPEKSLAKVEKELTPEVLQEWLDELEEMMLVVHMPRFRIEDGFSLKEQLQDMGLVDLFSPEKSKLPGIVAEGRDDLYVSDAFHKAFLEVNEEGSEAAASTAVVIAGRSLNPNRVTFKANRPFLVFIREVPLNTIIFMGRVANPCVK

B1: T-15Ap (ssDNA)
DNA: GGTTGGTGTGGTTGG
B1: binds [1].

B2: FQ-27Ap (ssDNA)
DNA: ACCCGTGGTAGGGTAGGATGGGGTGGT
B2: binds [2].

B3: T-27Ap (ssDNA)
DNA: ACCCGTGGTAGGGTAGGATGGGGTGGT
B3: binds [3].

B4: FQ-15Ap (ssDNA)
DNA: GGTTGGTGTGGTTGG
B4: no binding [4]; no binding [5].
